Measurements from PMC12886386.

Target: His10-pA-Tn5 (His10-tagged protein A-Tn5 transposase fusion) (not stated | Escherichia coli)
Assay: SEC; HiLoad 16/600 Superdex 200 pg after Ni-NTA; buffer C: 50 mM Tris-HCl pH 7.5, 800 mM NaCl, 0.2 mM EDTA, 2 mM DTT, 10% (v/v) glycerol; fractions checked by SDS-PAGE and 260 nm/280 nm ratio

Question: With “His10-pA-Tn5 (His10-tagged protein A-Tn5 transposase fusion) (enzyme)” as the substance, how does the stoichiometry N read?
Answer: 2
